Consider two compounds from publication PMC10724926, “Characterization of an efficient N-oxygenase from Saccharothrix sp. and its application in the synthesis of azomycin” (Biotechnology for Biofuels and Bioproducts, 2023).

Read-outs that look alike come from different tables or passages of the source.

One series deals with Nc1ncc[nH]1. Kind of series: purified protein. The note with it: pH 5.5, 25 °C, 20 min, 10 µM enzyme, 2 mM FeSO4, 50 µM PMS, 5 mM NADH, 20 mM HEPES.
A further series has as its system T1, SaRohS.
T1 construct: codon-optimised gene in pETDuet-28a+, E. coli BL21 (DE3), Ni-NTA purified
The experiment in a line: HPLC of azomycin formed, Michaelis-Menten fit. It is filed as biochemical, Saccharothrix sp. The note with it: pH 5.5, 25 °C, 20 min, 10 µM enzyme, 2 mM FeSO4, 50 µM PMS, 5 mM NADH, 20 mM HEPES. The source says:
HPLC of azomycin formed, Michaelis-Menten fit on SaRohS

As usually defined, the kcat is the maximal rate divided by the concentration of active sites. The kcat/Km is the turnover number divided by the Michaelis constant.

With KaRohS (Kitasatospora azatica), in the series on Nc1ncc[nH]1, the Km is reported as 390.55 ± 0.02 µM, the kcat is 0.00383 ± 8.33e-05 s⁻¹ and the kcat/Km stood at 10 M⁻¹ s⁻¹.
Take `Nc1ncc[nH]1` [2-aminoimidazole]: the Km with SaRohS is 182.69 ± 0.01 µM; with SaRohS (read-out: G95A/K115T) it was 82.68 ± 0.001 µM; with SaRohS (read-out: T75A), 924.17 ± 0.1 µM.
